The nanobody polyreactivity screen of Harvey et al. (2022)

Assay: yeast display, Sf9 membrane polyspecificity reagent, FACS + sequencing; frameworks hold sequencing errors
How it was run: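 Sorting gates, low and high (top ~1%), were placed on anti-HA fluorescence to track expression and on streptavidin fluorescence to track reagent binding. A clone's polyreactivity label is taken from the gate it came out of. The reagent was 10% biotinylated, detergent-solubilized Sf9 membrane, applied for 1 hour at 4 °C to galactose-induced yeast display cells.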

Sequence	polyreactivity (PSR sort gate)
QVQLVESGGDLVQAGASLRLSCASSGRTFRHNALGRYRQAPGKERYLVATISNRGGTTYYADSVKGRFTISRDNAKNTVYLQMNSLKPEDTAVYYCAARVGVLGYVRYGYWGQGTQVTVSS	low polyreactivity
QVQLVESGGDLVQAGGSLRLSCAASGITFVYNAMGWYRQAPGKERELVAGITWSGSSTYYADSVKGRFTISRDNAKNTVYLQMNSLKPEDTAVYYCAAYLYDRTTRYTYYYWGQGTQVTVSS	high polyreactivity
QVQLVESGGDLVQAGGSLRLSCDASGRTCSANGMGSYRQSTGKERELVAAITRSGGITYYADSVKGRFTISRDNAKNTVYLQMNSLNPEDTADYYCAASVYSLSRRSWMDYWGQGTQVTVST	low polyreactivity
QVQLVESGGGEVQAGGSLRLICAASGRTFQLNAMGWYRQAPGKERELVAAISTRGGSTYYADSVKGRFTISRDNAKNTVYLQMISLKPEDTAVYYCAARVWTANYEMDLWGQGTQVTVSS	high polyreactivity
QVQLVESGGGFDQAGGSLRLSCAASGSIFFYYVMGWYRQAPGKERELVAVISSGGGSTYYADSVKGRFTISRDNAKNTVYLQMNSLKPEDTAVYYCAAGTYYKFYYWGQGTQVTVSS	high polyreactivity
QVQLVESGGGFFQAGGSLRLSCAASGSTFGYYTMGWYRQAPGKERELVAAISSGGSRTNYADSVKGRFTISRDNAKNTVYLQMNILKPEDTAVYYCARQSYGGTNRYYYWGQGTQVTVSS	high polyreactivity
QVQLVESGGGFVEAGGSLRLSCAASGSIFRSYAMGWYRQAPGKERELVAAISSGDSTNYADTVKRRFTISRDNAQNTGYLQMNSLKPEDTADYYCAADQVQYTGYTEYDWGQGTQVTVSS	low polyreactivity
QVQLVESGGGFVPAGGSLRLSCAASGSTFIPYAMGWYRQAPGKERELVAAISSGGRTYYADSVKGRFTISRDNAKNTVYLQMNSVKPEDTAGYYCASTTSPSSARYYYWGQGTQVTVSS	high polyreactivity
QVQLVESGGGFVQAGGSLLVSCAASGFTFRYSAMGWYRQAPGKERELVAAIDQNSGRTYYADSGKGRFTISRDNAKNTVYLQMNSLKPEDTAVYYCNVGYPKVPAGSYDYWGQGTQVTVSS	high polyreactivity
QVQLVESGGGFVQAGGSLRLICADSGRIFGRYAMGWYRQAPGKERELVAVISARGARTYYADSVKGRFTLSRDNAKNTDYLQMNSLKPEATEVYYCAVDQYATDDYWGQGTQVTVSS	high polyreactivity
QVQLVESGGGFVQAGGSLRLSCAACGITFNPNAMGWYRQAPGKERELVAAITANGGNTYYADSVKGRFTISRDNAKNTVYLQMNSLKPEDTAVYYCARRTRRSAGYGEYYYWGQGTQVTVSS	high polyreactivity
QVQLVESGGGFVQAGGSLRLSCAASGFIFYQYAMGWYRQAPGKERELVAAISWGGGSTYYADSVKGRFTISRDNAKNTVYLQMNSLKQEDTAVYYCNTDSAPYYWLSDNYDSCGQGTQVTVSS	low polyreactivity
QVQLVESGGGFVQAGGSLRLSCAASGFTFFPYAMGWYRQAPGNEWELVAAISWSGGRTYYADSVKGRFTISRDNAKNTVYLHMNSLKPEDTAVYYCNARWRSGPRAYDYWGHGTQVTVSS	high polyreactivity
QVQLVESGGGFVQAGGSLRLSCAASGRIFAFYTMGWSRQAPGKEREFVAAISRSGGSTYYADSVKGRFTISRDNAKNTVYLQMNSLKPEDTAVYYCAKGGYSPKRVKYYDYWGQGTQVTVSS	low polyreactivity
QVQLVESGGGFVQAGGSLRLSCAASGRLFFIYAMGWYRQAPGKDRELVAAITGRGGRTYYADSVKGRFTISRDKPKNTVYLEMYSQKPEDTAVYYCAADSRDSYLFYYWGQGTQVTVST	high polyreactivity
QVQLVESGGGFVQAGGSLRLSCAASGRTFGHNDMGWYIQAPGKERELVATNSADGSTNYADSVKGRITISRDNEKKTVKLQMNSLKPEDTAVSYCAKDYQYVAYDYWGQGTQVTVSS	low polyreactivity
QVQLVESGGGFVQAGGSLRLSCAASGRTFIYNAMGWYRQAPGKERELVARISSGGGNTYYADSVKGRFTISRDNAKNPVYLQINSLKPEDTAVYYGAKGWRPSFSYYWGQGTQVTVSS	high polyreactivity
QVQLVESGGGFVQAGGSLRLSCAASGSIFSVNTMGWYRQAPGKERELVATIRTGDSTNYADSVTGRFTISRDNAKNTVYLQMNSLKPEDTAVDYCAAEWSSLNFDYWGQGTQVTVSS	low polyreactivity
QVQLVESGGGFVQAGGSLRLSCAASGSILRSYAMGWYRQAPGKERELVAVINGSGGRTYYADSVKGRFTISRDNAKNTVYLQMNSLKPEDTAVYYCNADPGGRYPRRGYAHEGDYWGQGTQVTVSS	low polyreactivity
QVQLVESGGGFVQAGGSLRLSCAASGSTFSHYTMGWYSQAPGNERELLAAINYGGASTYYADSVKGRFTISRDNAKNTVYLQMNSQKPEDTAVYYCAAANRPSEQDNYWGQGTQVTVSS	low polyreactivity
QVQLVESGGGFVQAGGSLRLSCAASGSTFYTYTLGWYRQAPGKERELVAAISSSGGDTYYADSVKGRFTISRDNAKNTVYLQMNSLKPEDTAVYYCAALGAFPSLEFDYWGQGTQVTVSS	low polyreactivity
QVQLVESGGGFVQAGGSLRLSCAATGSIFPQNAMGWYRQAPGKERELVASISSGGRTNYADSVKGRFTISRDYAKNTVYLQMNSLKPEDSAVYFCAKTRIRYKPLHFYYWGQGTQVTVSS	low polyreactivity

Sequence	polyreactivity (PSR sort gate)
QVQLVESGGGFVQAGGSLRLSCASSGRIFYRNAMVWYRQAPGKESELVAAILGSGGRTYYADSVKGSFTISRDTAKNNVYLQMNSMKPEVTAVYYCAAYGYYVEHPRGLSGPYDDDYWGQGTQVTVSS	low polyreactivity
QVQLVESGGGFVQAGGSLRLSCASSGRTFRLYAMGWYRQAPGKERELVDVIRSGDSTNYADSVKGRFTISSDNAKNTVYLQMNSVKPEDTAVYYCAADVLYYYGKYDYWGQGTQVTVSS	high polyreactivity
QVQLVESGGGFVQAGGSLRLSSAASGRTFYFYTMLWYRQAPGKERELVAAISWSGGSTYYADSVKGRFTISRDNAKNTVYLQMNSLKPEDTAVYYCAASSPWDQSNDQFYYWGQGTQVTVSS	low polyreactivity
QVQLVESGGGFVQAGGSLRLSSAASGSTFYRYAMGWYRQAPGKEREFVAAISRSGGSTYYADSVKRRFTLSRDNAKNTVYLQMNSLKPEDTAVEYCNKYYWYPYGRAQDYGYWGQGTQVTVSS	high polyreactivity
QVQLVESGGGIDQAGGSLRLSCAATGLTFWLNPMGWYRQAPWKERELVAAIRYSGGGTYADSVKGRFTISRDNAKNTVSLQMNSLKQEVTAVYYCAALYNLGYPQFDYWGQGNQVTVSS	low polyreactivity
QVQLVESGGGILQAGGSLRLSCAASGSTFSYYAMGWYRQAPGKERELVAAISYSGGRTYYADSVKGRFTISRDNAKNTVYLQMNSLKPEDTAVYYCAASGVFDSTRGVYYWGQGTQVTVSS	high polyreactivity
QVQLVESGGGIVQAGGRLRLSCAASGFTFGKYAMGWYRQAPGKERELVAAISRSGGSTYYADSVKGRFTISRDNAKFTVYLPMNSLKPVDTAVYYCAAYHPIQEYDYWGQGTQVTGSS	high polyreactivity
QVQLVESGGGIVQAGGRLRLSCAASGSTFPSKAMGWYRQAPGKERELVAAISRGGTTNYADSVKGRFTISRDNAKNTVYLQMNSLKPEDTAVYYCAKVYKLYWYKAYRRDYWGQGTQVTVSS	high polyreactivity
QVQLVESGGGIVQAGGSHRLSCAASGRTFRYNAMGWYRQAPGKERELVAAISGRGSSTYYADSVKGRFTISRDNAKNTVYLQMNSLKPEDTAVYYCAALPASVRRPGWHDYWGQGTQVTVSS	high polyreactivity
QVQLVESGGGIVQAGGSLLLSCAASGSISFLYTMGWYRQAPGKERELVAAITGSTASTYYADSVKGRFTISRDNAKNTVYLQMNSLKPEDTAVYYCAAYWYAEGYWVSRDYWGQGTQVTVSS	low polyreactivity
QVQLVESGGGIVQAGGSLLLSCPASGRIFGVYAMGWYRQAPGKERELVAGINGGDSTYYADSVKGRFTISRDNAKNTVYLQMNSLKPEDTAVYYCAAEADESGSNYDYWGQGSQVTVSS	low polyreactivity
QVQLVESGGGIVQAGGSLRISSAASGSIFGYYAMGWYIQEPGKERELVADITVRGGSTYYADSVKGRFTISRDNAKNTVYLQMNSLKPEDTAVYYCAAAQYTFWDGDSWGQGTQVTVSS	high polyreactivity
QVQLVESGGGIVQAGGSLRLICAASGIIFPVYAMGWYRPAPGKERELVAAISRSGGSTYYADSVKGRFTISRDHAKNTVYLQMNSLKPEDTAVYYCAARYVVGYSLSSYGYWGQGTQVTVSS	high polyreactivity
QVQLVESGGGIVQAGGSLRLLCAASGRNIINYDMGWYRQAPGKERELVAAITWSTGSTYADSVNGRFTISRDNAKNTVYLQMNSLSPEDTAVYYCAAPWGQTDDRHQGGDYWGQGTQVTVSS	low polyreactivity
QVQLVESGGGIVQAGGSLRLSCAASGFIFKRYAMGWYRQAPGKERELVAAITTSGGRTYYADSVKGRFTISRDNAKNTVYLLMNSLKPEDTAVYYCNADYGTYWWPYYYWGQGTQVTVSS	high polyreactivity
QVQLVESGGGIVQAGGSLRLSCAASGFTFGLYAMGWYRQAPGKERELVAVISSSGGSTYYADSVKGRFTISRDNAKNTVYLQMNSLKPEDTAVYYCAAEWHDYKFDVTYDYWGQVTQVTVSS	low polyreactivity
QVQLVESGGGIVQAGGSLRLSCAASGFTFGSNAMGWYRQAPGKERELVAAISRSSGRTYYADSVKGRFTISRDNAKNNVYLHMNSLKQEDTAVYYCDAQTPYRISLQYYYWGQGTQVTVSS	high polyreactivity
QVQLVESGGGIVQAGGSLRLSCAASGFTFGSYAMGWYRQAPGKEREFVAAIRRSGSSTYYADSVKGRFTISRDNAKNTVYLQMNSLKPEDTAVYYCAADVYRRLRRYRYYYWGQGTQVTVSS	low polyreactivity
QVQLVESGGGIVQAGGSLRLSCAASGFTFYYNAMGWYRQAPGKERELVAAISYRGGSTYYADSVKGRFTISRDNAKNTVYFQMNSLKPEDTAVYYCATRDPAFYRRYDYWGQATQVTVSS	high polyreactivity
QVQLVESGGGIVQAGGSLRLSCAASGGIFYRNAMGWYRQAPGKERELVAAISWRGGSTYYADSVKGRFTNSRDNAKNTVYLQMNSLKPEDTAVYFCAARSVATYRYDYWGQGTQVTVSS	high polyreactivity
QVQLVESGGGIVQAGGSLRLSCAASGIIFRAYAMGWSRQAPGKERELVAAISWSGGSTYYADSVKGRFTISRDNAKYTVYLQMNSLNPEDTAVYYCAAESLVYDFDYWGQGTQVTVSS	high polyreactivity
